# Measurements as given in paper PMC11882444 (2025).
# Target: LHC (LSD1-HDAC-CoREST complex) (Homo sapiens, UniProt O60341, UM171 and InsP6 present)
# Assay: dose-response titration of fluorescein-LHC
binder,measurement,value
KBTBD4 (protein) MKGGNADSWQREKLASMESPEEPGASMDENYFVNYTFKDRSHSGRVAQGIMKLCLEEELFADVTISVEGREFQLHRLVLSAQSCFFRSMFTSNLKEAHNRVIVLQDVSESVFQLLVDYIYHGTVKLRAEELQEIYEVSDMYQLTSLFEECSRFLARTVQVGNCLQVMWLADRHSDPELYTAAKHCAKTHLAQLQNTEEFLHLPHRLLTDIISDGVPCSQNPTEAIEAWINFNKEEREAFAESLRTSLKEIGENVHIYLIGKESSRTHSLAVSLHCAEDDSISVSGQNSLCHQITAACKHGGDLYVVGGSIPRRMWKCNNATVDWEWCAPLPRDRLQHTLVSVPGKDAIYSLGGKTLQDTLSNAVIYYRVGDNVWTETTQLEVAVSGAAGANLNGIIYLLGGEENDLDFFTKPSRLIQCFDTETDKCHVKPYVLPFAGRMHAAVHKDLVFIVAEGDSLVCYNPLLDSFTRLCLPEAWSSAPSLWKIASCNGSIYVFRDRYKKGDANTYKLDPATSAVTVTRGIKVLLTNLQFVLA,Kd,13 nM
